Here are results for four molecules from patent publication US20250375530A1, “ROR1/EGFR BI-SPECIFIC ANTIGEN BINDING MOLECULES” (ALMAC DISCOVERY LIMITED, priority 2022, published 2025).

The chains are these.
B1: P3A1 G1: humanised version of the ROR1 binding VNAR P3A1, SEQ ID NO: 114 (protein)
chain: TRVDQTPSSLSASVGDRVTITCVLTDTSYGLYSTYWYRKNPGSSNKEQISISGRYSESVNKGTKSFTLTISSLQPEDSATYYCRAREARHPWLRQWYDGAGTKVEIKQASGAHHHHHHGAEFEQKLISEEDL
B2: P3A1 G1 AE3: P3A1 G1 loop variant VNAR, SEQ ID NO: 77 (protein)
chain: TRVDQSPSSLSASVGDRVTITCVLTGTRYGLYSTYWYRKNPGSSDEERISISGRYSESVNKGTKSFTLTISSLQPEDSATYYCRAREARHPWLRQWYDGAGTKVEIKQACKAHHHHHHG
B3: P3A1 G1 NAC6: P3A1 G1 loop variant VNAR, SEQ ID NO: 79 (protein)
chain: TRVDQSPSSLSASVGDRVTITCVLTDTRYALYSTYWYRKNPGSTDEERISIGGRYSESVNKGSKSFTLTISSLQPEDSATYYCRAREARHPWLRQWYDGAGTKVEIKQACKAHHHHHHG
B4: P3A1 G1 NAG8: P3A1 G1 loop variant VNAR, SEQ ID NO: 81 (protein)
chain: TRVDQSPSSLSASVGDRVTITCVLTGTKYGLYATYWYRKNPGSPNKDRMIIGGRYSESVNNGTKSFTLTISSLQPEDSATYYCRAREARHPWLRQWYDGAGTKVEIKQACKAHHHHHHGAEFEQKLISEEDLG

This series in a line: Analytical SEC of P3A1 loop variants (Superdex 75 increase 10/300 GL, PBS pH 7.4). In kind it is physicochemical. The method, then:
Chromatography was carried out in PBS pH 7.4.
On to B1, for which the “% monomer by SEC” value is 100% and the “SEC elution volume” value is 15.47 mL.

Take B2: the “% monomer by SEC” value is 100% and the “SEC elution volume” value is on record as 17.3 mL.

Consider B3, for which the “% monomer by SEC” value worked out at 100% and the “SEC elution volume” value was 17.3 mL.

Take B4: the “% monomer by SEC” value is 100% and the “SEC elution volume” value came to 14.8 mL.
